Several values for one entry are separate records, joined by “and”; a condition that tells them apart may be missing. Equal entries are not always repeated.

Assay [1] deals with T1, PRPF40A WW12 (tandem WW domains, residues 141-236) (human, UniProt O75400 141-236).
T1 construct: pETM11 vector (NcoI/KpnI); also called PRPF40A WW tandem; isolated WW domains; source: E. coli BL21(DE3), purified (Ni-NTA, TEV cleavage, reverse Ni-NTA, SEC); not shown: His6, N-terminal, cleaved
The assay can be described thus: ITC; MicroCal PEAQ-ITC, 25 °C, 20 mM sodium phosphate pH 6.5, 100 mM NaCl; GB1-tagged SF1/SF3A1 constructs in the syringe, WW12 in the cell (N sites <1: more than one WW tandem on one construct); one-site model; apparent. As to conditions: both partners purified. A general note: In ITC the heat of successive injections is recorded.

In assay [2] the target is T2, PRPF40A WW12 (tandem WW domains, residues 141-236) (human, UniProt O75400 141-236).
T2 construct: A few vector residues probably remain at the N-terminus after TEV cleavage (pETM11, NcoI site); 15N-labelled in the NMR experiments; also called PRPF40A WW tandem; WW12 wt; source: E. coli BL21(DE3), purified (Ni-NTA, TEV digestion, reverse Ni-NTA, SEC); not shown: His6, N-terminal, cleaved
The assay can be described thus: ITC; GB1-peptide or GB1-SF1 construct in the cell, PRPF40A WW12 in the syringe (as shown in Supplementary Figures 7 and 16A); 25 °C, 20 mM sodium phosphate pH 6.5, 100 mM NaCl; one-site binding model; at least duplicates; affinities apparent. The settings on record: both partners purified.

B1: GB1-SF1 Pro C (residues 539-594) (domain or fragment, UniProt Q15637 539-594, looked up)
chain: GSIPPWQQQQAAAAASPGAPQMQGNPTMVPLPPGVQPPLPPGAPPPPPPPPPGSAG
notes: SF1 (splicing factor 1) residues 539-594; pET24 vector with 6xHis, GB1 and TEV site as N-terminal cassette, not cleaved; source: E. coli BL21(DE3), purified (Ni-NTA, SEC); not shown: GB1, N-terminal, kept
In the case of B1, in assay [1], the Kd was 2.1 µM and 1.94 µM and 2.02 µM; the “stoichiometry N” value was 0.87 and 0.88.

B2: GB1-SF1 Pro BC (residues 468-594) (domain or fragment, UniProt Q15637 468-594, looked up)
chain: GMMPPPPMGMMPPPPPPPSGQPPPPPSGPLPPWQQQQQQPPPPPPPSSSMASSTPLPWQQNTTTTTTSAGTGSIPPWQQQQAAAAASPGAPQMQGNPTMVPLPPGVQPPLPPGAPPPPPPPPPGSAG
notes: SF1 (splicing factor 1) residues 468-594; pET24 vector with 6xHis, GB1 and TEV site as N-terminal cassette, not cleaved; source: E. coli BL21(DE3), purified (Ni-NTA, SEC); not shown: GB1, N-terminal, kept
As to B2, the “stoichiometry N” value in assay [1] was 0.5 and 0.6 and 0.53.
With PPPPPPPPPPPPPPPPPPPPPPPPP [GB1-polyproline peptide P25], the Kd in assay [2] was 10.8 ± 1.8 µM.

B3: GB1-SF3A1 C-ter Pro (residues 552-683) (domain or fragment, UniProt Q15459 552-683, looked up)
chain: EIPQQPPPPSSATNIPSSAPPITSVPRPPTMPPPVRTTVVSAVPVMPRPPMASVVRLPPGSVIAPMPPIIHAPRINVVPMPPSAPPIMAPRPPPMIVPTAFVPAPPVAPVPAPAPMPPVHPPPPMEDEPTSK
notes: pET24 vector with 6xHis, GB1 and TEV site as N-terminal cassette, not cleaved; source: E. coli BL21(DE3), purified (Ni-NTA, SEC); not shown: GB1, N-terminal, kept
Turning to B3, the “stoichiometry N” value in assay [1] is 0.25 and 0.28 and 0.27.

B4: GB1-SF1 Pro CD (residues 539-639) (domain or fragment, UniProt Q15637 539-639, looked up)
chain: GSIPPWQQQQAAAAASPGAPQMQGNPTMVPLPPGVQPPLPPGAPPPPPPPPPGSAGMMYAPPPPPPPPMDPSNFVTMMGMGVAGMPPFGMPPAPPPPPPQN
notes: SF1 (splicing factor 1) residues 539-639; pET24 vector with 6xHis, GB1 and TEV site as N-terminal cassette, not cleaved; source: E. coli BL21(DE3), purified (Ni-NTA, SEC); not shown: GB1, N-terminal, kept
For the molecule B4, in assay [1], the “stoichiometry N” value was 0.42 and 0.38 and 0.36 and 0.39.

B5: GB1-SF1 Pro B (residues 468-539) (domain or fragment, UniProt Q15637 468-539, looked up)
chain: GMMPPPPMGMMPPPPPPPSGQPPPPPSGPLPPWQQQQQQPPPPPPPSSSMASSTPLPWQQNTTTTTTSAGTG
notes: SF1 (splicing factor 1) residues 468-539 of the proline-rich C-terminal region; pET24 vector with 6xHis, GB1 and TEV site as N-terminal cassette, not cleaved; source: E. coli BL21(DE3), purified (Ni-NTA, SEC); not shown: GB1, N-terminal, kept
On to B5, for which, in assay [1], the Kd was 15.7 µM and 16.1 µM and 20.6 µM; the “stoichiometry N” value was 1.3 and 1.15.

B6: GB1-SF1 Pro ABCD (residues 410-639) (domain or fragment, UniProt Q15637 410-639, looked up)
chain: GHPMQHNPNGPPPPWMQPPPPPMNQGPHPPGHHGPPPMDQYLGSTPVGSGVYRLHQGKGMMPPPPMGMMPPPPPPPSGQPPPPPSGPLPPWQQQQQQPPPPPPPSSSMASSTPLPWQQNTTTTTTSAGTGSIPPWQQQQAAAAASPGAPQMQGNPTMVPLPPGVQPPLPPGAPPPPPPPPPGSAGMMYAPPPPPPPPMDPSNFVTMMGMGVAGMPPFGMPPAPPPPPPQN
notes: SF1 (splicing factor 1) residues 410-639, the complete proline-rich C-terminal region; pET24 vector with 6xHis, GB1 and TEV site as N-terminal cassette, not cleaved; also called complete C-terminal region of SF1; source: E. coli BL21(DE3), purified (Ni-NTA, SEC); not shown: GB1, N-terminal, kept
As for B6, the “stoichiometry N” value in assay [1] is 0.33 and 0.23 and 0.28.

B7: GB1-SF1 Pro D (residues 594-639) (domain or fragment, UniProt Q15637 594-639, looked up)
chain: GMMYAPPPPPPPPMDPSNFVTMMGMGVAGMPPFGMPPAPPPPPPQN
notes: SF1 (splicing factor 1) residues 594-639, the very C-terminal region; pET24 vector with 6xHis, GB1 and TEV site as N-terminal cassette, not cleaved; source: E. coli BL21(DE3), purified (Ni-NTA, SEC); not shown: GB1, N-terminal, kept
On to B7, for which, in assay [1], the Kd was 10.3 µM and 9.94 µM and 10.1 µM; the “stoichiometry N” value is 0.84 and 0.9 and 0.87.

B8: GB1-SF1 Pro A (residues 410-468) (domain or fragment, UniProt Q15637 410-468, looked up)
chain: GHPMQHNPNGPPPPWMQPPPPPMNQGPHPPGHHGPPPMDQYLGSTPVGSGVYRLHQGKG
notes: splicing factor 1 (SF1), residues 410-468 of the proline-rich C-terminal region; His6-GB1-TEV site cassette of the pET24 vector, not cleaved; source: E. coli BL21(DE3), purified (Ni-NTA, SEC); not shown: GB1, N-terminal, kept
Turning to B8, the Kd in assay [2] was found to be 25.1 ± 6.5 µM.

B9: GB1-SF1 Pro A (residues 410-468) (domain or fragment, UniProt Q15637 410-468, looked up)
chain: GHPMQHNPNGPPPPWMQPPPPPMNQGPHPPGHHGPPPMDQYLGSTPVGSGVYRLHQGKG
notes: SF1 (splicing factor 1) residues 410-468 of the proline-rich C-terminal region; pET24 vector with 6xHis, GB1 and TEV site as N-terminal cassette, not cleaved; source: E. coli BL21(DE3), purified (Ni-NTA, SEC); not shown: GB1, N-terminal, kept
For B9, in assay [1], the Kd was 24.8 µM and 25.4 µM and 25.1 µM; the “stoichiometry N” value was 0.97 and 1 and 0.99.

B10: GB1-SF1 Pro BCD (residues 468-639) (domain or fragment, UniProt Q15637 468-639, looked up)
chain: GMMPPPPMGMMPPPPPPPSGQPPPPPSGPLPPWQQQQQQPPPPPPPSSSMASSTPLPWQQNTTTTTTSAGTGSIPPWQQQQAAAAASPGAPQMQGNPTMVPLPPGVQPPLPPGAPPPPPPPPPGSAGMMYAPPPPPPPPMDPSNFVTMMGMGVAGMPPFGMPPAPPPPPPQN
notes: SF1 (splicing factor 1) residues 468-639; pET24 vector with 6xHis, GB1 and TEV site as N-terminal cassette, not cleaved; source: E. coli BL21(DE3), purified (Ni-NTA, SEC); not shown: GB1, N-terminal, kept
Regarding B10, the “stoichiometry N” value in assay [1] was 0.3 and 0.26 and 0.28.

B11: GB1-SF3A1 Middle Pro (residues 364-413) (domain or fragment, UniProt Q15459 364-413, looked up)
chain: EGQKVPPPPETPMPPPLPPTPDQVIVRKDYDPKASKPLPPAPAPDEYLVS
notes: SF3A1 residues 364-413, proline-rich region with a PPLP motif; pET24 vector with 6xHis, GB1 and TEV site as N-terminal cassette, not cleaved; also called SF3A1 region (364-413); source: E. coli BL21(DE3), purified (Ni-NTA, SEC); not shown: GB1, N-terminal, kept
Take B11: in assay [1], the Kd was 8.1 µM and 9.6 µM and 8.86 µM; the “stoichiometry N” value was 0.7 and 0.42 and 0.56.
As for PPPPPPPPPPPPP [GB1-polyproline peptide P13], the Kd in assay [2] turned out to be 8.54 ± 1.46 µM.
With PPPPPPPPPPPPPPPPPPPPPPPPPPPPP [GB1-polyproline peptide P29], the Kd in assay [2] stood at 9.15 ± 1.85 µM.
Regarding TMVPLPPGVQPPLPPG [GB1-SF1 16-mer peptide 565-580], the Kd in assay [2] worked out at 30.4 ± 6.7 µM.

Broadly, the stoichiometry N is a count of units in the complex or per binding partner.
